Results taken from the supplement of paper PMC11246515.
± gives the standard deviation of the averaged measurements.

Assay: total protein half-life in vivo (active degradation + dilution); higher = more stable protein
[1] = E. coli NCM3722 delta-clpP delta-lon delta-hslV, growth: N-lim chemostat, doubling time 6 h
[2] = E. coli NCM3722 delta-clpP, growth: N-lim chemostat, doubling time 6 h
[3] = E. coli NCM3722 delta-hslV, growth: N-lim chemostat, doubling time 6 h
[4] = E. coli NCM3722 delta-lon, growth: N-lim chemostat, doubling time 6 h
[5] = E. coli NCM3722 delta-smpB, growth: N-lim chemostat, doubling time 6 h
[6] = wild type E. coli NCM3722, growth: C-lim chemostat, doubling time 3 h
[7] = wild type E. coli NCM3722, growth: C-lim chemostat, doubling time 6 h
[8] = wild type E. coli NCM3722, growth: C-lim chemostat, doubling time 12 h
[9] = wild type E. coli NCM3722, growth: N-lim chemostat, doubling time 6 h
[10] = wild type E. coli NCM3722, growth: N-lim chemostat, doubling time 12 h
[11] = wild type E. coli NCM3722, growth: P-lim chemostat, doubling time 6 h
[12] = wild type E. coli NCM3722, growth: P-lim chemostat, doubling time 12 h

Row | Substance | total protein half-life in vivo [1] | total protein half-life in vivo [2] | total protein half-life in vivo [3] | total protein half-life in vivo [4] | total protein half-life in vivo [5] | total protein half-life in vivo [6] | total protein half-life in vivo [7] | total protein half-life in vivo [8] | total protein half-life in vivo [9] | total protein half-life in vivo [10] | total protein half-life in vivo [11] | total protein half-life in vivo [12]
1 | MKIFLENLYHSDCYFLPIRDNQQVLVGVELITHFSSEDGTVRIPTSRVIAQLTEEQHWQLFSEQLELLKSCQHFFIQHKLFAWLNLTPQVATLLLERDNYAGELLKYPFIELLINENYPHLNEGKDNRGLLSLSQVYPLVLGNLGAGNSTMKAVFDGLFTRVMLDKSFIQQQITHRSFEPFIRAIQAQISPCCNCIIAGGIDTAEILAQITPFDFHALQGCLWPAVPINQITTLVQR | 4.97 ± 0.65 h | 4.111 ± 0.0084 h | 3.897 ± 0.0064 h | 4.44 ± 0.36 h | 3.866 ± 0.031 h | 2.99 ± 0.1 h | 6.47 ± 1.4 h | 9.89 h | 4.22 ± 0.84 h | 7.69 ± 1.8 h | 5.87 ± 0.37 h | 11.5 ± 0.35 h
2 | MIENRPWLTIFSHTMLILGIAVILFPLYVAFVAATLDKQAVYAAPMTLIPGTHLLENIHNIWVNGVGTNSAPFWRMLLNSFVMAFSITLGKITVSMLSAFAIVWFRFPLRNLFFWMIFITLMLPVEVRIFPTVEVIANLQMLDSYAGLTLPLMASATATFLFRQFFMTLPDELVEAARIDGASPMRFFCDIVFPLSKTNLAALFVITFIYGWNQYLWPLLIITDVDLGTTVAGIKGMIATGEGTTEWNSVMVAMLLTLIPPVVIVLVMQRAFVRGLVDSEK | – | – | – | – | – | – | – | 14.5 h | – | – | 6.34 h | 12.6 ± 2.1 h
3 | MTQYSSLLRGLAAGSAFLFLFAPTAFAAEQTVEAPSVDARAWILMDYASGKVLAEGNADEKLDPASLTKIMTSYVVGQALKADKIKLTDMVTVGKDAWATGNPALRGSSVMFLKPGDQVSVADLNKGVIIQSGNDACIALADYVAGSQESFIGLMNGYAKKLGLTNTTFQTVHGLDAPGQFSTARDMALLGKALIHDVPEEYAIHKEKEFTFNKIRQPNRNRLLWSSNLNVDGMKTGTTAGAGYNLVASATQGDMRLISVVLGAKTDRIRFNESEKLLTWGFRFFETVTPIKPDATFVTQRVWFGDKSEVNLGAGEAGSVTIPRGQLKNLKASYTLTEPQLTAPLKKGQVVGTIDFQLNGKSIEQRPLIVMENVEEGGFFGRVWDFVMMKFHQWFGSWFS | 6.35 ± 0.48 h | 6.56 ± 0.37 h | 6.22 ± 0.69 h | 6.18 ± 0.099 h | 6.46 ± 0.26 h | 3.19 ± 0.077 h | 6.19 ± 1.3 h | 12.4 ± 0.45 h | 5.989 ± 0.057 h | 14.9 ± 1.2 h | 5.962 ± 0.051 h | 13.2 ± 0.29 h
4 | MNKTQLIDVIAEKAELSKTQAKAALESTLAAITESLKEGDAVQLVGFGTFKVNHRAERTGRNPQTGKEIKIAAANVPAFVSGKALKDAVK [P0ACF0] | 7.47 ± 0.039 h | 6.29 ± 0.51 h | 5.45 ± 0.31 h | 6.06 ± 0.22 h | 5.39 ± 0.12 h | 3.04 ± 0.19 h | 5.55 ± 0.72 h | 10 ± 0.23 h | 5.15 ± 0.27 h | 11.91 ± 0.1 h | 4.73 ± 0.92 h | 11.1 ± 1.5 h
5 | MENIMNNPVIGVVMCRNRLKGHATQTLQEKYLNAIIHAGGLPIALPHALAEPSLLEQLLPKLDGIYLPGSPSNVQPHLYGENGDEPDADPGRDLLSMAIINAALERRIPIFAICRGLQELVVATGGSLHRKLCEQPELLEHREDPELPVEQQYAPSHEVQVEEGGLLSALLPECSNFWVNSLHGQGAKVVSPRLRVEARSPDGLVEAVSVINHPFALGVQWHPEWNSSEYALSRILFEGFITACQHHIAEKQRL | – | 2.93 h | – | – | – | 2.64 h | – | 10.5 h | – | – | – | 10.6 ± 0.45 h
6 | P30015 | 6.18 ± 0.094 h | 5.87 ± 0.33 h | 5.75 ± 0.43 h | 5.14 ± 0.24 h | 4.71 ± 0.31 h | 2.92 h | 6.31 ± 0.44 h | 11.4 ± 3.1 h | 5.5 ± 0.47 h | 9.93 ± 0.82 h | 5.97 ± 0.43 h | 11.8 ± 0.42 h
7 | MPVRASIEPLTWENAFFGVNSAIVRITSEAPLLTPDALAPWSRVQAKIAASNTGELDALQQLGFSLVEGEVDLALPVNNASDSGAVVAQETDIPALRQLASAAFAQSRFRAPWYAPDASSRFYAQWIENAVRGTFDHQCLILRAASGDIRGYVSLRELNATDARIGLLAGRGAGAELMQTALNWAYARGKTTLRVATQMGNTAALKRYIQSGANVESTAYWLYR | 5.12 ± 0.074 h | 5.45 ± 0.15 h | 5.034 ± 0.029 h | 5.27 ± 0.26 h | 4.7 ± 0.44 h | 3.03 ± 0.15 h | 5.9 ± 0.062 h | 11.5 h | 5.052 ± 0.012 h | 9.31 ± 0.14 h | 5.73 ± 0.87 h | 12.6 ± 0.52 h
